Measured values as given in patent US20100261182A1.

T1: 5-TAMRA-MpTPpYV-NH2 substrate peptide (bis-phosphorylated)
T1 chain: MTPYV

B1: His-PPM1E (PPM1E phosphatase with an N-terminal His-tag, expressed in Sf9 cells) (protein)
chain: MAGCIPEEKTYRRFLELFLGEFRGPCGGGEPEPEPEPEPEPEPESEPEPEPELVEAEAAEASVEEPGEEAATVAATEEGDQEQDPEPEEEAAVEGEEEEEGAATAAAAPGHSAVPPPPPQLPPLPPLPRPLSERITREEVEGESLDLCLQQLYKYNCPSFLAAALARATSDEVLQSDLSAHYIPKETDGTEGTVEIETVKLARSVFSKLHEICCSWVKDFPLRRRPQLYYETSIHAIKNMRRKMEDKHVCIPDFNMLFNLEDQEEQAYFAVFDGHGGVDAAIYASIHLHVNLVRQEMFPHDPAEALCRAFRVTDERFVQKAARESLRCGTTGVVTFIRGNMLHVAWVGDSQVMLVRKGQAVELMKPHKPDREDEKQRIEALGGCVVWFGAWRVNGSLSVSRAIGDAEHKPYICGDADSASTVLDGTEDYLILACDGFYDTVNPDEAVKVVSDHLKENNGDSSMVAHKLVASARDAGSSDNITVIVVFLRDMNKAVNVSEESDWTENSFQGGQEDGGDDKENHGECKRPWPQHQCSAPADLGYDGRVDSFTDRTSLSPGSQINVLEDPGYLDLTQIEASKPHSAQFLLPVEMFGPGAPKKANLINELMMEKKSVQSSLPEWSGAGEFPTAFNLGSTGEQIYRMQSLSPVCSGLENEQFKSPGNRVSRLSHLRHHYSKKWHRFRFNPKFYSFLSAQEPSHKIGTSLSSLTGSGKRNRIRSSLPWRQNSWKGYSENMRKLRKTHDIPCPDLPWSYKIE
B2: Full length PPM1E (SEQ ID NO: 1) overexpressed in H4 neuroglioma cells and rat hippocampal primary neurons (protein)
chain: MAGCIPEEKTYRRFLELFLGEFRGPCGGGEPEPEPEPEPEPEPESEPEPEPELVEAEAAEASVEEPGEEAATVAATEEGDQEQDPEPEEEAAVEGEEEEEGAATAAAAPGHSAVPPPPPQLPPLPPLPRPLSERITREEVEGESLDLCLQQLYKYNCPSFLAAALARATSDEVLQSDLSAHYIPKETDGTEGTVEIETVKLARSVFSKLHEICCSWVKDFPLRRRPQLYYETSIHAIKNMRRKMEDKHVCIPDFNMLFNLEDQEEQAYFAVFDGHGGVDAAIYASIHLHVNLVRQEMFPHDPAEALCRAFRVTDERFVQKAARESLRCGTTGVVTFIRGNMLHVAWVGDSQVMLVRKGQAVELMKPHKPDREDEKQRIEALGGCVVWFGAWRVNGSLSVSRAIGDAEHKPYICGDADSASTVLDGTEDYLILACDGFYDTVNPDEAVKVVSDHLKENNGDSSMVAHKLVASARDAGSSDNITVIVVFLRDMNKAVNVSEESDWTENSFQGGQEDGGDDKENHGECKRPWPQHQCSAPADLGYDGRVDSFTDRTSLSPGSQINVLEDPGYLDLTQIEASKPHSAQFLLPVEMFGPGAPKKANLINELMMEKKSVQSSLPEWSGAGEFPTAFNLGSTGEQIYRMQSLSPVCSGLENEQFKSPGNRVSRLSHLRHHYSKKWHRFRFNPKFYSFLSAQEPSHKIGTSLSSLTGSGKRNRIRSSLPWRQNSWKGYSENMRKLRKTHDIPCPDLPWSYKIE

Experiments:
[1] = biological target: T1, 5-TAMRA-MpTPpYV-NH2 substrate peptide …
[2] = biological target: 5-TAMRA-MpTPpYV-NH2 substrate peptide (bis-phosphorylated); experiment: cell-based or functional assay
[3] = biological target: CaMKII alpha isoform (about 50 kDa), phosphorylated at Thr286
[4] = biological target: CaMKII beta isoform (about 57 kDa), phosphorylated at Thr286

Row | Binder | polarization at a concentration of PPM1E of 33 nM [1] | polarization at a concentration of PPM1E of 0.8 µM [1] | IC50 (EC50) of the PPM1E titration, decrease of polarization [2] [nM] | dephosphorylation of pCaMKII alpha band (western blot) [3] | phosphorylation of CaMKII relative to wildtype HC neurons (western blot) [3] | dephosphorylation of pCaMKII beta band (western blot) [4] | phosphorylation of CaMKII relative to wildtype HC neurons (western blot) [4]
1 | B1 | a polarization of about 147 mP (milli-Polarization) was measured | the polarization decreased to about 123 mP | 160 |  |  |  | 
2 | B2 |  |  |  | PPM1E phosphatase is dephosphorylating the beta isoform (57 kDa) as well as the alpha isoform (50 kDa) of CaMKII | the phosphorylation of CaMKII is decreasing to 50% of the phosphorylation status of wildtype cells by increasing the level of PPM1E expression 12 times | PPM1E phosphatase is dephosphorylating the beta isoform (57 kDa) as well as the alpha isoform (50 kDa) of CaMKII | the phosphorylation of CaMKII is decreasing to 50% of the phosphorylation status of wildtype cells by increasing the level of PPM1E expression 12 times
